# Data: paper PMC4046932
# Molecular target: Neisseria gonorrhoeae MtrD inner membrane multidrug efflux pump (Neisseria gonorrhoeae) (UniProt Q51073)
# Assay: crystal structure; sitting-drop vapor diffusion at room temperature; 20 mg/ml MtrD in 20 mM Na-HEPES pH 7.5, 0.05% Cymal-6; reservoir 30% PEG 400, 0.1 M Na-Bicine pH 8.5, 0.1 M NH4Cl, 0.05 M BaCl2, 9% glycerol; space group R32, one protomer per asymmetric unit; 3.53 Å
substance,measurement,value
Neisseria gonorrhoeae MtrD inner membrane multidrug efflux pump (from UniProt Q51073 1-1067) (natural protein),stoichiometry N,3
